Numbering of substitutions follows the chain as printed.

Experiment [1] addresses T1, recombinant rhesus EGFR-His (rhesus macaque, UniProt P55245 25-645, limits assumed).
T1 construct: also called Rhesus macaque EGFR; not shown: His tag (EGFR-His)
Kind of experiment: SPR, single point mutant scFv constructs. For orientation: SPR reads the build-up and loss of mass on a sensor chip optically.

In experiment [2] the target is T2, recombinant human EGFR-His (human, UniProt P00533 25-645).
T2 construct: also called epidermal growth factor receptor; ErbB-1; not shown: His tag (EGFR-His)
Kind of experiment: SPR, single point mutant scFv constructs.

For experiment [3], the target named is T2, recombinant human EGFR-His. Kind of experiment: SPR, Biacore 8K, 37 C, TriNKET captured on anti-hFc IgG chip, EGFR-His injected, N=4. The procedure:
(§1) Kinetics and affinities of EGFR binding constructs for recombinant human and rhesus EGFR were measured by SPR using a Biacore 8K instrument. Samples were captured on the anti-hFc IgG chip and a range of concentrations of human or rhesus recombinant EGFR-His was injected over captured test articles. Experiments were performed at physiological temperature of 37° C. Data were analyzed using Biacore 8K Insight Evaluation software (GE Healthcare).

Experiment [4] concerns the target T3, EGFR expressed on H2172 human cancer cells (human, UniProt P00533 25-1210).
T3 construct: whole, on cells; also called EGFR-positive H2172 cancer cells; EGFR+ cells
Description: flow cytometry on EGFR-positive H2172 cells, 4 C for 0.5 h, fluorophore-conjugated anti-human IgG secondary antibody. The procedure: This example was designed to assess the binding affinity of the EGFR-targeting TriNKETs to EGFR expressed on cell surface. The H2172 human cancer cell line, derived from non-small cell lung carcinoma, was used. […] Cells were analyzed by flow cytometry and fold MFI over secondary-only controls reported.
On the technique in general: In flow cytometry, cells or beads pass a laser one at a time.

The target in experiment [5] is T2, recombinant human EGFR-His. Description: SPR, Biacore 8K, 37 C, TriNKET captured on anti-hFc IgG chip, EGFR-His injected, N=4; column head prints KD (nM) but the cells carry E-09. Here is the method:
as §1

For experiment [6], the target named is T1, recombinant rhesus EGFR-His. Description: SPR, combination mutant scFv constructs.
Experiment [7] concerns the target T2, recombinant human EGFR-His. Kind of experiment: SPR, combination mutant scFv constructs.

One may read the Kd as the concentration at which binding is half-saturated. The koff is the first-order rate constant of dissociation. Broadly, the kon is the rate constant with which the complex forms. In the case of PANI-L-D92R (scFv), in experiment [1], the Kd was 5.09 nM, the koff is 0.00096 s⁻¹ and the kon was found to be 189000 M⁻¹ s⁻¹. In addition, in experiment [2], the Kd is 3.27 nM, the koff is 0.000839 s⁻¹ and the kon amounted to 256000 M⁻¹ s⁻¹.

B1: EGFR-TriNKET-2 (bispecific antibody, human IgG1, kappa)
chain: DIQMTQSPSSLSASVGDRVTITCQASQDISNYLNWYQQKPGKAPKLLIYDASNLETGVPSRFSGSGSGTDFTFTISSLQPEDIATYYCQHFDHLPLAFGCGTKVEIKGGGGSGGGGSGGGGSGGGGSQVQLQESGPGLVKPSETLSLTCTVSGGSVSSGDYYWTWIRQSPGKCLEWIGHIYYSGNTNYNPRLKSRLTISIDTSKTQFSLKLSSVTAADTAIYYCVRDRVTGAFDIWGQGTMVTVSSGSDKTHTCPPCPAPELLGGPSVFLFPPKPKDTLMISRTPEVTCVVVDVSHEDPEVKFNWYVDGVEVHNAKTKPREEQYNSTYRVVSVLTVLHQDWLNGKEYKCKVSNKALPAPIEKTISKAKGQPREPRVYTLPPCRDELTKNQVSLTCLVKGFYPSDIAVEWESNGQPENNYKTTPPVLVSDGSFTLYSKLTVDKSRWQQGNVFSCSVMHEALHNHYTQKSLSLSPG
heavy: EVQLVESGGGLVKPGGSLRLSCAASGFTFSSYSMNWVRQAPGKGLEWVSSISSSSSYIYYADSVKGRFTISRDNAKNSLYLQMNSLRAEDTAVYYCARGAPIGAAAGWFDPWGQGTLVTVSSASTKGPSVFPLAPSSKSTSGGTAALGCLVKDYFPEPVTVSWNSGALTSGVHTFPAVLQSSGLYSLSSVVTVPSSSLGTQTYICNVNHKPSNTKVDKKVEPKSCDKTHTCPPCPAPELLGGPSVFLFPPKPKDTLMISRTPEVTCVVVDVSHEDPEVKFNWYVDGVEVHNAKTKPREEQYNSTYRVVSVLTVLHQDWLNGKEYKCKVSNKALPAPIEKTISKAKGQPREPQVCTLPPSRDELTENQVSLTCLVKGFYPSDIAVEWESNGQPENNYKTTPPVLDSDGSFFLYSWLTVDKSRWQQGNVFSCSVMHEALHNHYTQKSLSLSPG
light: DIQMTQSPSSVSASVGDRVTITCRASQGISSWLAWYQQKPGKAPKLLIYAASSLQSGVPSRFSGSGSGTDFTLTISSLQPEDFATYYCQQGVSFPRTFGGGTKVEIKRTVAAPSVFIFPPSDEQLKSGTASVVCLLNNFYPREAKVQWKVDNALQSGNSQESVTEQDSKDSTYSLSSTLTLSKADYEKHKVYACEVTHQGLSSPVTKSFNRGEC
notes: F3' format with three polypeptides: EGFR-scFv-2 (VL-VH)-Fc, A49MI-VH-CH1-Fc and A49MI-VL-CL; also called EGFR2
For orientation: EC50 (read off the curve) means the concentration that produces a half-maximal response. Low readings indicate an effect from little substance, high ones a need for much substance. In the case of B1, in experiment [3], the koff is 0.000988 s⁻¹ and the kon turned out to be 500000 M⁻¹ s⁻¹. Besides, the “EC50 (read off the curve)” value in experiment [4] was about 0.5 nM. The Kd in experiment [5] turned out to be 1.98 nM.

B2: EGFR-TriNKET-1 (bispecific antibody)
scFv-Fc: B1 chain with Y87F, R191S
heavy: B1 heavy
light: B1 light
notes: also called EGFR1
B2: in experiment [3], the koff stood at 0.000967 s⁻¹ and the kon was 592000 M⁻¹ s⁻¹. The “EC50 (read off the curve)” value in experiment [4] was about 0.3 nM.

B3: EGFR-TriNKET-3 (bispecific antibody, human IgG1, kappa)
chain: B1 chain with D92R
heavy: B1 heavy
light: B1 light
notes: F3' format with three polypeptides: EGFR-scFv-3 (VL-VH)-Fc, A49MI-VH-CH1-Fc and A49MI-VL-CL; also called EGFR3
For B3, in experiment [3], the koff came to 0.00093 s⁻¹ and the kon is 295000 M⁻¹ s⁻¹. Besides, the “EC50 (read off the curve)” value in experiment [4] was about 0.9 nM. In experiment [5], the Kd came out at 3.16 nM.

B4: EGFR-TriNKET-4 (bispecific antibody, human IgG1, kappa)
chain: B1 chain with D92R, R191S
heavy: B1 heavy
light: B1 light
notes: F3' format with three polypeptides: EGFR-scFv-4 (VL-VH)-Fc, A49MI-VH-CH1-Fc and A49MI-VL-CL; also called EGFR4
As for B4, in experiment [3], the koff is 0.000745 s⁻¹ and the kon came to 316000 M⁻¹ s⁻¹. Moreover, the Kd in experiment [5] turned out to be 2.36 nM.

B5: PANI-H_S62R-L_F87Y-L_D92R (scFv, V domains shown)
VH: QVQLQESGPGLVKPSETLSLTCTVSGGSVSSGDYYWTWIRQSPGKCLEWIGHIYYSGNTNYNPRLKSRLTISIDTSKTQFSLKLSSVTAADTAIYYCVRDRVTGAFDIWGQGTMVTVSS
VL: DIQMTQSPSSLSASVGDRVTITCQASQDISNYLNWYQQKPGKAPKLLIYDASNLETGVPSRFSGSGSGTDFTFTISSLQPEDIATYYCQHFRHLPLAFGCGTKVEIK
notes: also called EGFR-scFv-3
Turning to B5, in experiment [6], the Kd amounted to 5.36 nM, the off-rate (koff) is 0.00112 s⁻¹ and the kon was 209000 M⁻¹ s⁻¹. Also, in experiment [7], the dissociation constant Kd is 3.38 nM, the koff came out at 0.00099 s⁻¹ and the kon stood at 293000 M⁻¹ s⁻¹.

The values above are taken from US20230257467A1 (DRAGONFLY THERAPEUTICS, published 2023).
